The values below come from the supplement of paper PMC5998384.

The test system of data set [1] is HeLa Kyoto. Description: solubility in G1/S (NP-40 vs SDS abundance) (log2 ratio); higher = more soluble. To be noted: cell cycle stage: G1/S.
Data set [2] deals with HeLa Kyoto. Description: solubility change mitosis vs G1/S (difference of NP-40 vs SDS log2 ratios) (log2 ratio difference); higher = more soluble in mitosis.
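Throughout, for solubility change mitosis vs G1/S (difference of NP-40 vs SDS log2 ratios): synchronized HeLa Kyoto cells (double thymidine block for G1/S, nocodazole release for mitosis), protein amounts in NP-40 versus SDS lysates quantified by mass spectrometry, three biological replicates.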
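Throughout, for solubility in G1/S (NP-40 vs SDS abundance): HeLa Kyoto cells arrested at G1/S by double thymidine block, proteins quantified by TMT10plex mass spectrometry in mild NP-40 versus SDS extracts, three biological replicates.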

For the sequence “MAAAVAAPLAAGGEEAAATTSVPGSPGLPGRRSAERALEEAVATGTLNLSNRRLKHFPRGAARSYDLSDITQADLSRNRFPEVPEAACQLVSLEGLSLYHNCLRCLNPALGNLTALTYLNLSRNQLSLLPPYICQLPLRVLIVSNNKLGALPPDIGTLGSLRQLDVSSNELQSLPSELCGLSSLRDLNVRRNQLSTLPEELGDLPLVRLDFSCNRVSRIPVSFCRLRHLQVILLDSNPLQSPPAQVCLKGKLHIFKYLSTEAGQRGSALGDLAPSRPPSFSPCPAEDLFPGHRYDGGLDSGFHSVDSGSKRWSGNESTDEFSELSFRISELAREPRGPRERKEDGSADGDPVQIDFIDSHVPGEDEERGTVEEQRPPELSPGAGDRERAPSSRREEPAGEERRRPDTLQLWQERERRQQQQSGAWGAPRKDSLLKPGLRAVVGGAAAVSTQAMHNGSPKSSASQAGAAAGQGAPAPAPASQEPLPIAGPATAPAPRPLGSIQRPNSFLFRSSSQSGSGPSSPDSVLRPRRYPQVPDEKDLMTQLRQVLESRLQRPLPEDLAEALASGVILCQLANQLRPRSVPFIHVPSPAVPKLSALKARKNVESFLEACRKMGVPEADLCSPSDLLQGTARGLRTALEAVKRVGGKALPPLWPPSGLGGFVVFYVVLMLLLYVTYTRLLGS [LRCH4]”, the “solubility in G1/S (log2)” value with HeLa Kyoto [1] worked out at 0.302. Besides, the “solubility change mitosis (log2)” value with HeLa Kyoto [2] was -0.305.
Consider “MAAEEVLQTVDHYKTEIERLTKELTETTHEKIQAAEYGLVVLEEKLTLKQQYDELEAEYDSLKQELEQLKEAFGQSFSIHRKVAEDGETREETLLQESASKEAYYLGKILEMQNELKQSRAVVTNVQAENERLTAVVQDLKENNEMVELQRIRMKDEIREYKFREARLLQDYTELEEENITLQKLVSTLKQNQVEYEGLKHEIKRFEEETVLLNSQLEDAIRLKEIAEHQLEEALETLKNEREQKNNLRKELSQYISLNDNHISISVDGLKFAEDGSEPNNDDKMNGHIHGPLVKLNGDYRTPTLRKGESLNPVSDLFSELNISEIQKLKQQLMQVEREKAILLANLQESQTQLEHTKGALTEQHERVHRLTEHVNAMRGLQSSKELKAELDGEKGRDSGEEAHDYEVDINGLEILECKYRVAVTEVIDLKAEIKALKEKYNKSVENYTDEKAKYESKIQMYDEQVTSLEKTTKESGEKMAHMEKELQKMTSIANENHSTLNTAQDELVTFSEELAQLYHHVCLCNNETPNRVMLDYYRQSRVTRSGSLKGPDDPRGLLSPRLARRGVSSPVETRTSSEPVAKESTEASKEPSPTKTPTISPVITAPPSSPVLDTSDIRKEPMNIYNLNAIIRDQIKHLQKAVDRSLQLSRQRAAARELAPMIDKDKEALMEEILKLKSLLSTKREQIATLRAVLKANKQTAEVALANLKNKYENEKAMVTETMTKLRNELKALKEDAATFSSLRAMFATRCDEYVTQLDEMQRQLAAAEDEKKTLNTLLRMAIQQKLALTQRLEDLEFDHEQSRRSKGKLGKSKIGSPKVSGEASVTVPTIDTYLLHSQGPQTPNIRVSSGTQRKRQFSPSLCDQSRPRTSGASYLQNLLRVPPDPTSTESFLLKGPPSMSEFIQGHRLSKEKRLTVAPPDCQQPAASVPPQCSQLAGRQDCPTVSPDTALPEEQPHSSSQCAPLHCLSKPPHP [BICD1]”, for which the “solubility in G1/S (log2)” value with HeLa Kyoto [1] was 0.652. The “solubility change mitosis (log2)” value in the data set on HeLa Kyoto [2] was -0.259.
In the same order, the values of “MAAGCCGVKKQKLSSSPPSGSGGGGGASSSSHCSGESQCRAGELGLGGAGTRLNGLGGLTGGGSGSGCTLSPPQGCGGGGGGIALSPPPSCGVGTLLSTPAAATSSSPSSSSAASSSSPGSRKMVVSAEMCCFCFDVLYCHLYGYQQPRTPRFTNEPYPLFVTWKIGRDKRLRGCIGTFSAMNLHSGLREYTLTSALKDSRFPPMTRDELPRLFCSVSLLTNFEDVCDYLDWEVGVHGIRIEFINEKGSKRTATYLPEVAKEQGWDHIQTIDSLLRKGGYKAPITNEFRKTIKLTRYRSEKMTLSYAEYLAHRQHHHFQNGIGHPLPPYNHYS [AMMECR1]” are 0.255 and -0.37.
The corresponding values for “MAANSSGQGFQNKNRVAILAELDKEKRKLLMQNQSSTNHPGASIALSRPSLNKDFRDHAEQQHIAAQQKAALQHAHAHSSGYFITQDSAFGNLILPVLPRLDPE [INIP]” are -0.135 and 0.407.
The corresponding values for “MAAPCLLRQGRAGALKTMLQEAQVFRGLASTVSLSAESGKSEKGQPQNSKKQSPPKKPAPVPAEPFDNTTYKNLQHHDYSTYTFLDLNLELSKFRMPQPSSGRESPRH [NDUFV3]” are 0.224 and -0.0477.
